What all share (test): cell-based or functional assay
Test [1] deals with hemagglutinin (HA) of A/Beijing/262/95 (H1N1) on pseudotyped lentivirus (Influenza virus A/Beijing/262/95 (H1N1)).
In test [2] the target is hemagglutinin (HA) of A/Fort Monmouth/1/47 (H1N1) on pseudotyped lentivirus (Influenza virus A/Fort Monmouth/1/47 (H1N1)) (UniProt A4U7A6).
Test [3] has as its target hemagglutinin (HA) of A/Hong Kong/117/77 (H1N1) on pseudotyped lentivirus (Influenza virus A/Hong Kong/117/77 (H1N1)) (UniProt P18875).
Test [4] deals with hemagglutinin (HA) of A/Iowa/43 (H1N1) on pseudotyped lentivirus (Influenza virus A/Iowa/43 (H1N1)) (UniProt A4GCK8).
For test [5], the target named is hemagglutinin (HA) of A/New Caledonia/20/99 (H1N1) on pseudotyped lentivirus (Influenza virus A/New Caledonia/20/1999 (H1N1)) (UniProt Q289M7).
Test [6] has as its target hemagglutinin (HA) of A/New Jersey/76 (H1N1) on pseudotyped lentivirus (Influenza virus A/New Jersey/76 (H1N1)).
Test [7] deals with hemagglutinin (HA) of A/New York/146/00 (H1N1) on pseudotyped lentivirus (Influenza virus A/New York/146/00 (H1N1)).
Test [8] has as its target hemagglutinin (HA) of A/New York/653/96 (H1N1) on pseudotyped lentivirus (Influenza virus A/New York/653/96 (H1N1)).
The target of test [9] is hemagglutinin (HA) of A/New York/8/06 (H1N1) on pseudotyped lentivirus (Influenza virus A/New York/8/06 (H1N1)).
Test [10] has as its target hemagglutinin (HA) of A/Puerto Rico/8/34 (H1N1) on pseudotyped lentivirus (Influenza virus A/Puerto Rico/8/34 (H1N1)) (UniProt P03452).
Test [11] concerns the target hemagglutinin (HA) of A/Singapore/6/86 (H1N1) on pseudotyped lentivirus (Influenza virus A/Singapore/6/86 (H1N1)) (UniProt A3DRP0).
Test [12] has as its target hemagglutinin (HA) of A/Solomon Islands/3/06 (H1N1) on pseudotyped lentivirus (Influenza virus A/Solomon Islands/3/06 (H1N1)).
Test [13] concerns the target hemagglutinin (HA) of A/South Carolina/1/18 (H1N1) on pseudotyped lentivirus (Influenza virus A/South Carolina/1/18 (H1N1)) (UniProt Q9WFX3).

Regarding monoclonal antibody 441D6, the Neutralization IC50, lentivirus pseudotype neutralization assay in test [1] is 0.07 µg/mL; in test [2], 0.02 µg/mL; in [3], 0.04 µg/mL; in test [4], 11.1 µg/mL; in [5], 0.04 µg/mL; in [6], 0.03 µg/mL. The Neutralization IC50, lentivirus pseudotype neutralization assay came out at 0.01 µg/mL in test [7]; 0.02 µg/mL in [8]; 0.14 µg/mL in [9]; 0.08 µg/mL in [10]; 0.01 µg/mL in [11]; 0.29 µg/mL in [12]. Moreover, in [13], the Neutralization IC50, lentivirus pseudotype neutralization assay amounted to 0.04 µg/mL.
For the substance “monoclonal antibody CH65 (anti-receptor binding site of HA)”, the Neutralization IC50, lentivirus pseudotype neutralization assay in test [1] was 0.01 µg/mL; in test [2] it was 5.86 µg/mL; in test [3] it was 0.97 µg/mL; in [4] it was > 50 µg/mL; in [5] it was 0.01 µg/mL; in [6] it was > 25 µg/mL. For the same substance, the Neutralization IC50, lentivirus pseudotype neutralization assay is 0.03 µg/mL in test [7]; < 0.005 µg/mL in test [8]; 0.02 µg/mL in test [9]; 0.44 µg/mL in test [10]; < 0.005 µg/mL in test [11]; 1.3 µg/mL in [12]. For the same substance, the Neutralization IC50, lentivirus pseudotype neutralization assay in test [13] is 0.57 µg/mL.
Take “monoclonal antibody FI6v3 (anti-HA stem region)”: the Neutralization IC50, lentivirus pseudotype neutralization assay in [1] was 1.01 µg/mL; in test [2] it was 22.2 µg/mL; in [3] it was 0.09 µg/mL; in test [4], 3.4 µg/mL; in test [5], 0.09 µg/mL; in test [6], 0.36 µg/mL. Besides, the Neutralization IC50, lentivirus pseudotype neutralization assay was 0.08 µg/mL in test [7]; 0.15 µg/mL in test [8]; > 25 µg/mL in [9]; 0.97 µg/mL in [10]; 0.01 µg/mL in test [11]; 0.94 µg/mL in [12]. In test [13], this substance showed a Neutralization IC50, lentivirus pseudotype neutralization assay of 4.4 µg/mL.
